Measured values as given in patent US20250066499A1 (SUNSHINE GUOJIAN PHARMACEUTICAL SHANGHAI, published 2025).
Substitutions are numbered along the chain they refer to.

Legend:
Experiment in all cases: ELISA, high plateau value (OD 450 nm)
CD73-ND-K180A = target: T1, CD73-ND-K180A (human, UniProt P21589 27-317)
T1 construct: Alanine mutant of CD73-ND
T1 sequence: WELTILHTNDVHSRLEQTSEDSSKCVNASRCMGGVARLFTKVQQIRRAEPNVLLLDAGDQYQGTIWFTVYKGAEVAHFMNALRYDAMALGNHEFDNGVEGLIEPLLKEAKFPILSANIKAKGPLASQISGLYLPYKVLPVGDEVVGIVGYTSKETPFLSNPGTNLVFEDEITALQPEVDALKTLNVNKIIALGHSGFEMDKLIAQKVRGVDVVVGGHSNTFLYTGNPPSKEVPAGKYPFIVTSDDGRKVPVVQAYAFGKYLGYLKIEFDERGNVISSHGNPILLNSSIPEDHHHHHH
Experimental: (§1) The ELISA plates were coated with SA protein diluted to 1.5 μg/mL in coating buffer (50 mM carbonate coating buffer, pH 9.6) and incubated overnight at 4° C. The supernatant was discarded, and the plates were washed three times with PBST. Then, 5% skimmed milk powder prepared with PBS was added for blocking and the plates were incubated for 2 h at 37° C. After washing the plates once with PBST, CD73-biotin protein (prepared by biotinylating CD73-His protein according to the EZ-Link NHS-Biotin Reagent instructions) was diluted to 0.5 μg/mL and added at 100 μL/well for incubation at room temperature for 1 h. The plates were washed three times with PBST, and the prepared murine-derived monoclonal antibodies against human CD73 were serially diluted with 1% BSA buffer prepared with PBST and added to the ELISA plates at 100 μl/well. The plates were incubated at 37° C. for 1 h. After washing the plates three times with PBST, HRP-labeled goat anti-mouse IgG secondary antibody was added and the plates were incubated for 30 min at 37° C. After washing the plates three times with PBST, the residual droplets were patted dry on absorbent paper as much as possible. Then, 100 μl of TMB color developing solution was added to each well, and the plates were incubated in the dark at room temperature for 5 min for color development. Subsequently, 50 μl of 2M H₂SO₄ stop solution was added to each well to terminate the substrate reaction. The OD values were read at 450 nm using a multimode microplate reader to analyze the binding ability of the tested antibodies to the target antigen human CD73-His.
(§2) Referring to the experimental method in Example 3, the affinity of 48A11-HuV33 for various mutant proteins of CD73-ND was determined. The SA protein was diluted to 1 μg/mL for coating the ELISA plates, and the biotinylated CD73 protein (CD73-biotin) was used at a concentration of 0.1 μg/mL.

CD73-ND-N185A = target: T2, CD73-ND-N185A (human, UniProt P21589 27-317)
T2 construct: Alanine mutant of CD73-ND
T2 sequence: T1 sequence with A180K, N185A
Experimental: as §1, §2

CD73-ND-K182A = target: T3, CD73-ND-K182A (human, UniProt P21589 27-317)
T3 construct: Alanine mutant of CD73-ND
T3 sequence: T1 sequence with A180K, K182A
Experimental: as §1, §2

CD73-ND-V144A = target: T4, CD73-ND-V144A (human, UniProt P21589 27-317)
T4 construct: Alanine mutant of CD73-ND
T4 sequence: T1 sequence with V144A, A180K
Experimental: as §1, §2

CD73-ND-his = target: T5, CD73-ND-his (human, UniProt P21589 27-317)
T5 construct: Biotinylated and captured on streptavidin in the ELISA
T5 sequence: T1 sequence with A180K
Experimental: as §1, §2

CD73-ND-D142A = target: T6, CD73-ND-D142A (human, UniProt P21589 27-317)
T6 construct: Alanine mutant of CD73-ND
T6 sequence: T1 sequence with D142A, A180K
Experimental: as §1, §2

B1: 48A11-HuV33 (antibody, human IgG4, V domains shown)
VH: QVQLVQSGAEVKKPGASVKVSCKASGYTFTSYWMHWVRQAPGQGLEWIGEINPSIGRTNYNEKFKSRVTLTRDTSTSTAYMELSSLRSEDTAVYYCARRVYGTMDYWGQGTLVTVSS
VL: DIQMTQSPSSLSASVGDRVTITCKASQDINSYLSWFQQKPGKSPKLLIYRANIWVDGVPSRFSGSGSGQDYTFTISSLQPEDIATYYCLQYDELYTFGQGTKVEIK
notes: Humanized
Binder B1 has a Top (CD73-ND-K180A) of 1.74, a Top (CD73-ND-N185A) of 1.9 and a Top (CD73-ND-K182A) of 2.03. For the same binder, the Top (CD73-ND-V144A) was 1.69, the Top (CD73-ND-his) was 2 and the Top (CD73-ND-D142A) was 1.84.
